Numbering of substitutions follows the chain as printed. Numbers in names are those of the source.
B1: IgG1-F412 (antibody)
heavy: QVQLQESGPGLVKPSETLSLTCAVSGHSISHDHAWSWVRQPPGEGLEWIGFISYSGITNYNPSLQGRVTISRDNSKNTLYLQMNSLRAEDTAVYYCARSLARTTAMDYWGEGTLVTVSSASTKGPSVFPLAPSSKSTSGGTAALGCLVKDYFPEPVTVSWNSGALTSGVHTFPAVLQSSGLYSLSSVVTVPSSSLGTQTYICNVNHKPSNTKVDKKVEPKSCDKTHTCPPCPAPELLGGPSVFLFPPKPKDTLMISRTVEVTCVVVDVSHEDPEVKFNWYVDGVEVHNAKTKPREEQYNSTYRVVSVLGVLHQDWLNGKEYKCKVSNKALPAPIEKTISKAKGQPREPQVYTLPPSRDELTKNQVSLTCLVKGFYPSDIAVEWESNGQPENNYKTTPPVLDSDGSFFLYSKLTVDKSRWQQGNVFSCSVLHEALHYHYTQKSLSLSP
light: not shown
notes: EU numbering; copies: 2 + 2
B2: IgG1-F442 (antibody)
heavy: B1 heavy with V259A, G309T, Q313H
light: not shown
notes: EU numbering; copies: 2 + 2
B3: IgG1-F415 (antibody)
heavy: B1 heavy with N288E, G309A
light: not shown
notes: EU numbering; copies: 2 + 2
B4: IgG1-F457 (antibody)
heavy: B1 heavy with S241K, G309T, V310P
light: not shown
notes: EU numbering; copies: 2 + 2
B5: IgG1-F452 (antibody)
heavy: B1 heavy with V259M, G309A
light: not shown
notes: EU numbering; copies: 2 + 2
B6: IgG1-F422 (antibody)
heavy: B1 heavy with M254Y, V259P, G309A, Q313H, E384A, L430M
light: not shown
notes: EU numbering; copies: 2 + 2
B7: IgG1-F470 (antibody)
heavy: B1 heavy with T258E, V259T, G309T, V310P, N327G
light: not shown
notes: EU numbering; copies: 2 + 2
B8: IgG1-F472 (antibody)
heavy: B1 heavy with V259T, G309T, V310P, N327G, P389E
light: not shown
notes: EU numbering; copies: 2 + 2
B9: IgG1-F432 (antibody)
heavy: B1 heavy with G309Q, Q313A, N327G, L430V
light: not shown
notes: EU numbering; copies: 2 + 2
B10: IgG1-F429 (antibody)
heavy: B1 heavy with M254Y, G309Q, L430M
light: not shown
notes: EU numbering; copies: 2 + 2
B11: IgG1-F463 (antibody)
heavy: B1 heavy with V259A, G309A, V310P
light: not shown
notes: EU numbering; copies: 2 + 2
B12: IgG1-F420 (antibody)
heavy: B1 heavy with M254Y, V259P, G309A, Q313H, P389E, L430M
light: not shown
notes: EU numbering; copies: 2 + 2
B13: IgG1-F426 (antibody)
heavy: B1 heavy with G309Q, L430M
light: not shown
notes: EU numbering; copies: 2 + 2
B14: IgG1-F475 (antibody)
heavy: B1 heavy with T258E, G309Q
light: not shown
notes: EU numbering; copies: 2 + 2
B15: IgG1-F438 (antibody)
heavy: B1 heavy with V259A, G309Q, L430Y
light: not shown
notes: EU numbering; copies: 2 + 2
B16: IgG1-F424 (antibody)
heavy: B1 heavy with S241K, V259A, G309T, V310P
light: not shown
notes: copies: 2 + 2
B17: IgG1-F428 (antibody)
heavy: B1 heavy with M254Y, G309Q
light: not shown
notes: EU numbering; copies: 2 + 2
B18: IgG1-F467 (antibody)
heavy: B1 heavy with T258E, V259T, G309T, L430M
light: not shown
notes: EU numbering; copies: 2 + 2
B19: IgG1-F464 (antibody)
heavy: B1 heavy with V259A, G309Q, V310P
light: not shown
notes: EU numbering; copies: 2 + 2
B20: IgG1-F476 (antibody)
heavy: B1 heavy with G309Q, E384A
light: not shown
notes: EU numbering; copies: 2 + 2
B21: IgG1-F416 (antibody)
heavy: B1 heavy with G309A, P389E
light: not shown
notes: EU numbering; copies: 2 + 2
B22: IgG1-F481 (antibody)
heavy: B1 heavy with V259T, G309Q, L430M
light: not shown
notes: EU numbering; copies: 2 + 2
B23: IgG1-F469 (antibody)
heavy: B1 heavy with V259T, G309T, V310P, N327G
light: not shown
notes: EU numbering; 'N3250' read as N325G; copies: 2 + 2
B24: IgG1-F437 (antibody)
heavy: B1 heavy with V259A, G309Q, L430M
light: not shown
notes: EU numbering; copies: 2 + 2
B25: IgG1-F468 (antibody)
heavy: B1 heavy with S241K, V259T, G309T, V310P
light: not shown
notes: EU numbering; copies: 2 + 2
B26: IgG1-F451 (antibody)
heavy: B1 heavy with V259S, G309A
light: not shown
notes: EU numbering; copies: 2 + 2
B27: IgG1-F433 (antibody)
heavy: B1 heavy with G309Q, Q313A, N327G, L430M
light: not shown
notes: EU numbering; copies: 2 + 2
B28: IgG1-F482 (antibody)
heavy: B1 heavy with G309Q, N327G, L430M
light: not shown
notes: EU numbering; copies: 2 + 2
B29: IgG1-F431 (antibody)
heavy: B1 heavy with M254Y, G309Q, L430F
light: not shown
notes: EU numbering; copies: 2 + 2
B30: IgG1-F413 (antibody)
heavy: B1 heavy with G309P
light: not shown
notes: EU numbering; copies: 2 + 2
B31: IgG1-F471 (antibody)
heavy: B1 heavy with V259T, G309T, V310P, N327G, E384A
light: not shown
notes: EU numbering; copies: 2 + 2
B32: IgG1-F459 (antibody)
heavy: B1 heavy with G309Q, V310P, Q313A, N327G
light: not shown
notes: EU numbering; copies: 2 + 2
B33: IgG1-F458 (antibody)
heavy: B1 heavy with G309Q, V310P, N327G
light: not shown
notes: EU numbering; copies: 2 + 2
B34: IgG1-F436 (antibody)
heavy: B1 heavy with V259A, G309Q, L430V
light: not shown
notes: EU numbering; copies: 2 + 2
B35: IgG1-F444 (antibody)
heavy: B1 heavy with V259A, G309A, Q313A
light: not shown
notes: EU numbering; copies: 2 + 2
B36: IgG1-F425 (antibody)
heavy: B1 heavy with V259A, G309T, V310P, L311E
light: not shown
notes: EU numbering; copies: 2 + 2
B37: IgG1-F480 (antibody)
heavy: B1 heavy with V259L, G309T, V310P, L430M
light: not shown
notes: EU numbering; copies: 2 + 2
B38: IgG1-F430 (antibody)
heavy: B1 heavy with M254Y, G309Q, L430Y
light: not shown
notes: EU numbering; copies: 2 + 2
B39: IgG1-F453 (antibody)
heavy: B1 heavy with V259N, G309A
light: not shown
notes: EU numbering; copies: 2 + 2
B40: IgG1-F474 (antibody)
heavy: B1 heavy with V259T, G309T, V310P, L311R, N327G
light: not shown
notes: EU numbering; copies: 2 + 2
B41: IgG1-F455 (antibody)
heavy: B1 heavy with G309Q, L430Y
light: not shown
notes: EU numbering; copies: 2 + 2
B42: IgG1-F449 (antibody)
heavy: B1 heavy with S241K, M254Y, V259P, D272F, G309P, N327G, L430Y
light: not shown
notes: EU numbering; copies: 2 + 2
B43: IgG1-F477 (antibody)
heavy: B1 heavy with G309Q, P389E
light: not shown
notes: EU numbering; copies: 2 + 2
B44: IgG1-F441 (antibody)
heavy: B1 heavy with V259A, G309T, Q313A
light: not shown
notes: EU numbering; copies: 2 + 2
B45: IgG1-F465 (antibody)
heavy: B1 heavy with N288E, G309Q, N327G
light: not shown
notes: EU numbering; copies: 2 + 2
B46: IgG1-F473 (antibody)
heavy: B1 heavy with V259T, G309T, V310P, L311P, N327G
light: not shown
notes: EU numbering; copies: 2 + 2
B47: IgG1-F418 (antibody)
heavy: B1 heavy with S241K, M254Y, V259P, G309P, N327G, L430Y
light: not shown
notes: EU numbering; copies: 2 + 2
B48: IgG1-F427 (antibody)
heavy: B1 heavy with M254Y, G309Q, L430V
light: not shown
notes: EU numbering; copies: 2 + 2
B49: IgG1-F466 (antibody)
heavy: B1 heavy with T258E, G309T, L430M
light: not shown
notes: EU numbering; copies: 2 + 2
B50: IgG1-F440 (antibody)
heavy: B1 heavy with N288E, G309Q, Q313A, N327G
light: not shown
notes: EU numbering; copies: 2 + 2
B51: IgG1-F454 (antibody)
heavy: B1 heavy with V259I, G309A
light: not shown
notes: EU numbering; copies: 2 + 2
B52: IgG1-F435 (antibody)
heavy: B1 heavy with G309Q, Q313A, N327G, L430F
light: not shown
notes: EU numbering; copies: 2 + 2
B53: IgG1-F447 (antibody)
heavy: B1 heavy with V259A, N288E, G309Q
light: not shown
notes: EU numbering; copies: 2 + 2
B54: IgG1-F456 (antibody)
heavy: B1 heavy with G309Q, L430F
light: not shown
notes: EU numbering; copies: 2 + 2
B55: IgG1-F446 (antibody)
heavy: B1 heavy with V259A, G309A, Q313H
light: not shown
notes: EU numbering; copies: 2 + 2
B56: IgG1-F423 (antibody)
heavy: B1 heavy with M254Y, V259P, G309W, Q313H, L430M
light: not shown
notes: EU numbering; copies: 2 + 2
B57: IgG1-F448 (antibody)
heavy: B1 heavy with V259A, N288E, G309A
light: not shown
notes: EU numbering; copies: 2 + 2
B58: IgG1-F443 (antibody)
heavy: B1 heavy with V259A, G309Q, Q313A
light: not shown
notes: EU numbering; copies: 2 + 2
B59: IgG1-F460 (antibody)
heavy: B1 heavy with G309A, V310P, N327G
light: not shown
notes: EU numbering; copies: 2 + 2
B60: IgG1-F439 (antibody)
heavy: B1 heavy with V259A, G309Q, L430F
light: not shown
notes: EU numbering; copies: 2 + 2

The binders below were run against T1, human FcRn (soluble human FcRn complexed with β2-microglobulin) (human, UniProt P61769 21-119, limits assumed) (assay: SPR, pH 7.0;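 further: antibodies captured on a Protein L sensor chip with human FcRn injected as analyte, KD calculated from fitted association and dissociation rate constants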).
T1 construct: also called hFcRn
T1 sequence (chain, as listed by the source limits assumed, chain 1 of 2): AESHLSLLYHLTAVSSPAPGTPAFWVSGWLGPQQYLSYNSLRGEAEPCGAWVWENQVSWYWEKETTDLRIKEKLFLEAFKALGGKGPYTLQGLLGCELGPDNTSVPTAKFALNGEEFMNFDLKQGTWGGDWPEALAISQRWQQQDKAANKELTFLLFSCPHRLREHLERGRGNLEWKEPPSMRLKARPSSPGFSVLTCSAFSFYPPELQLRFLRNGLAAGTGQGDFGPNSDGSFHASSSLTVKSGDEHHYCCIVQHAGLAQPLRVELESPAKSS
T1 sequence (P61769 21-119 limits assumed, chain 2 of 2): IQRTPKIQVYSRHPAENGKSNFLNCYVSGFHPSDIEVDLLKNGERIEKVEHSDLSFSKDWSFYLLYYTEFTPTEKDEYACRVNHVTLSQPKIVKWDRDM

Point of comparison: B1, Kd 88 nM. Against it:
- B2 — 2.3-fold higher, 200 nM
- B3 — 1.6-fold lower, 56 nM
- B4 — 2.2-fold lower, 40 nM
- B5 — 1.6-fold higher, 140 nM
- B6 — 2-fold higher, 180 nM
- B7 — 1.6-fold lower, 54 nM
- B8 — 1.6-fold lower, 54 nM
- B9 — 10-fold higher, 920 nM
- B10 — 2.4-fold lower, 37 nM
- B11 — within 1.5-fold, 130 nM
- B12 — 1.7-fold higher, 150 nM
- B13 — within 1.5-fold, 84 nM
- B14 — 2-fold lower, 43 nM
- B15 — 2.4-fold lower, 36 nM
- B16 — within 1.5-fold, 94 nM
- B17 — within 1.5-fold, 80 nM
- B18 — 6.5-fold higher, 570 nM
- B19 — 1.6-fold lower, 55 nM
- B20 — 1.6-fold lower, 55 nM
- B21 — within 1.5-fold, 94 nM
- B22 — 1.6-fold lower, 56 nM
- B23 — 1.6-fold lower, 56 nM
- B24 — 1.5-fold lower, 57 nM
- B25 — 1.5-fold lower, 57 nM
- B26 — within 1.5-fold, 100 nM
- B27 — within 1.5-fold, 60 nM
- B28 — within 1.5-fold, 70 nM
- B29 — within 1.5-fold, 65 nM
- B30 — within 1.5-fold, 120 nM
- B31 — within 1.5-fold, 66 nM
- B32 — 6.8-fold lower, 13 nM
- B33 — 5.9-fold lower, 15 nM
- B34 — 2.8-fold higher, 250 nM
- B35 — 1.6-fold higher, 140 nM
- B36 — within 1.5-fold, 80 nM
- B37 — 2.3-fold lower, 39 nM
- B38 — within 1.5-fold, 81 nM
- B39 — within 1.5-fold, 78 nM
- B40 — 4-fold higher, 350 nM
- B41 — 3.3-fold lower, 27 nM
- B42 — 6.5-fold higher, 570 nM
- B43 — 2-fold lower, 43 nM
- B44 — 2-fold higher, 180 nM
- B45 — 4.2-fold lower, 21 nM
- B46 — 5.1-fold higher, 450 nM
- B47 — 7-fold higher, 620 nM
- B48 — within 1.5-fold, 110 nM
- B49 — 4-fold higher, 350 nM
- B50 — 5.9-fold lower, 15 nM
- B51 — within 1.5-fold, 96 nM
- B52 — 3.5-fold lower, 25 nM
- B53 — 6.3-fold lower, 14 nM
- B54 — 2.6-fold lower, 34 nM
- B55 — within 1.5-fold, 110 nM
- B56 — within 1.5-fold, 84 nM
- B57 — 1.7-fold lower, 53 nM
- B58 — 1.6-fold lower, 55 nM
- B59 — 1.9-fold lower, 47 nM
- B60 — 2.2-fold lower, 40 nM

— patent US20200199241A1 (Chugai, published 2020)
